Laboratory results as given in patent publication US20200113997A1.
Numbering of substitutions follows the chain as printed.

B1: DH270.IA3 (protein)
chain 1: QVQLVQSGAEVKKPGASVKVSCKASGYTFTDYYIHWVRQAPGQGLEWMAWINPTTGRTNYARKFQGRVTMTRDTSISTAYMELRRLRSDDTAVYYCARGGWIGLYVDYSGYPNFDSWGQGTLVTVSS
chain 2: QSALTQPASVSGSPGQSITISCTGTSYDVGSYNLVSWYQQHPGKAPKLMIYEVSKWPSGVSNRFSGSKSGNTASLTISGLQAEDEADYYCCSYAGSSTVIFGGGTKLTVL
B2: DH270.IA1 (protein)
chain 1: B1 chain 1 with A49G, T54N, R62Q, T69I, R84S, V106Y, Y108S, S116Y
chain 2: B1 chain 2 with W56R
B3: DH270.IA2 (protein)
chain 1: B1 chain 1 with V11M, A49G, T54N, R62Q, R84S, R87T, R98T, V106Y, Y108S, S116Y
chain 2: B1 chain 2 with L48Y, S54N, W56R
B4: DH270.6 (antibody, V domains shown)
VH: QVQLVQSGAQMKNPGASVKVSCAPSGYTFTDFYIHWLRQAPGQGLQWMGWMNPQTGRTNTARNFQGRVIMTRDTSIGTAYMELRSLTSDDTAIYYCTTGGWISLYYDSSYYPNFDHWGQGTLLTVSS
VL: TSLLTQPASVSGSPGQSITISCTGTKYDVGSHDLVSWYQQYPGKVPKYMIYEVNKRPSGVSNRFSGSKSGNTASLTISGLRAEDEADYYCCSFGGSATVVCGGGTKVTVL

How the values were obtained:
Man9-V3 glycopeptide = test: BLI
[1] = molecular target: Man9-V3 glycopeptide (HIV-1 (clade B JRFL mini-V3)); test: BLI, biotinylated peptide on streptavidin sensor, bivalent avidity model

Row | Binder | Kd (Man9-V3 glycopeptide) [µM] | Kd [1] [µM]
1 | B1 | > 10 | 
2 | B2 | 3.29 | 
3 | B3 | > 10 | 
4 | B4 |  | 0.188
